T1: recombinant cynomolgus monkey TREM-1 (cynomolgus monkey, UniProt A0A2K5VHG8 21-204)
T1 construct: Soluble recombinant protein injected as SPR analyte; construct not described; also called cTREM-1; cynomolgus TREM-1
T1 sequence: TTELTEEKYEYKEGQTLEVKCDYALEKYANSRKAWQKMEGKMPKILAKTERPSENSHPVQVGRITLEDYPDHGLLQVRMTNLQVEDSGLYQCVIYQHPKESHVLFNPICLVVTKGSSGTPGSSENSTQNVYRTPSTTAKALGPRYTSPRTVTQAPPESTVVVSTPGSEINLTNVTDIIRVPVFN


Tests used:
[1] = biological target: T1, recombinant cynomolgus monkey TREM-1; assay: SPR, Fab immobilised, cynomolgus TREM-1 injected; average
Protocol: (§1) Surface plasmon resonance (SPR): in order to evaluate the interaction kinetics for TREM-1 antibodies or Fabs to hTREM-1 (human TREM-1) and cTREM-1 (cynomolgus monkey TREM-1), surface plasmon resonance (SPR) assays were carried out (Biacore™ T200, GE Healthcare Biosciences). The anti-human Fc antibodies (Cytiva) were immobilized on CM5 sensor chip in order to evaluate IgG1 affinities and Fabs were directly immobilized on the chip. Immobilization experiments were performed at 25° C. using HBS-EP+1× running buffer (10 mM HEPES, 150 mM NaCl, 3 mM EDTA, 0.05% surfactant P20, pH 7.4). The anti-human Fc antibodies or Fabs were diluted in 10 mM sodium acetate at acidic pH before the immobilization procedure using amine coupling on the dextran matrix of the sensor chips. […] Following these injections, ethanolamine was injected to deactivate the surface. The immobilization wizard was used to obtain several thousand of immobilized RU (resonance units). The immobilization level was chosen in order to have a proper covering of the sensor chip surface. […] Binding of hTREM-1 or cTREM-1 proteins was conducted by injecting analyte over all flow cells. […] The concentrations were evaluated using the Single Cycle Kinetics method. This approach consists of a sequential injection of increasing concentration of the analyte, with a single regeneration step using a magnesium chloride buffer (Cytiva) at the end of the cycle. Binding affinity of TREM-1 antibodies or Fabs with hTREM-1 or cTREM-1 was quantified by determination of the equilibrium dissociation constant (KD) determined by measurement of the kinetics of complex formation and dissociation.

[2] = biological target: T1, recombinant cynomolgus monkey TREM-1; assay: SPR, Fab immobilised, cynomolgus TREM-1 injected; replicate 2
Protocol: as §1

[3] = biological target: T1, recombinant cynomolgus monkey TREM-1; assay: SPR, Fab immobilised, cynomolgus TREM-1 injected; replicate 1
Protocol: as §1

Row | Binder | Kd [1] [µM] | Kd [2] [µM] | Kd [3] [µM]
1 | humanized anti-TREM-1 Fab fragment INO-10F-4 (Fab, V domains shown, Fab) VH: EVQLVESGGALVKPGGSLRLSCAASGFNIGNTYIHWVRQAPGKGLEWVGRIDPAGGRTKYAPKVKGRFTISADDSKNTAYLQMNSLKTEDTAVYYCTGHRGGTMDYWGQGTLVTVSS VL: EIVLTQSPATLSLSPGERATLSCRASQSVSNYGISFLNWYQQKPGQAPRLLIYAAEYRGRGIPARFSGSGSGTDFTLTISSLEPEDFAVYYCQQSSNVPYTFGQGTKVEIK | 0.0246 | 0.0244 | 0.0248
2 | humanized anti-TREM-1 Fab fragment INO-10F-2 (Fab, V domains shown, Fab) VH: EVQLVESGGALVKPGGSLRLSCAASGFNIGNTYIHWVRQAPGKGLEWIGRIDPAGGRTKYSPKVQGRFTISAPTSKNTAYLQMNSLKTEDTAVYYCTGHRGGTMDYWGQGTLVTVSS VL: EIVLTQSPATLSLSPGERATLSCRASQSVSNYGISFLNWYQQKPGQAPRLLIYAASYQKRGIPARFSGSGSGTDFTLTISSLEPEDFAVYYCQQSSNFPWTFGQGTKVEIK | 0.0283 | 0.0285 | –
3 | anti-hTREM-1 Fab fragment INO-10F (Fab, V domains shown, Recombinant chimeric Fab (murine variable regions) made in CHO cells and purified on HisTrap Excel; also called INO-10 Fab) VH: AVQLQQSVAALVRPGASVKLSCTASGFNIKNTYIHWVKQRPEQGLEWIGRIDPANGNTKYAPKFQGKATITADTSSDTAYLQLSSLTSDDTAIYYCTGHYGSTMDYWGQGTSVTVSS VL: not shown | 0.0622 | 0.0666 | 0.0579

More lines, now with the values ahead:

Row | Kd [1] [µM] | Kd [2] [µM] | Kd [3] [µM] | Binder
4 | 0.0568 | 0.0534 | 0.0601 | humanized anti-TREM-1 Fab fragment INO-10F-6 (Fab, V domains shown, Fab) VH: EVQLVESGGALVKPGGSLRLSCAASGFNIGNTYIHWVRQAPGKGLEWVGRIDPAGGRTKYAPKVKGRFTISADDSKNTLYLQMNSLKTEDTAVYYCTGHRGGTMDYWGQGTLVTVSS VL: EIVLTQSPATLSLSPGERATLSCRASQSVSNYGISFLNWYQQKPGQAPRLLIYAAEYRARGIPARFSGSGSGTDFTLTISSLEPEDFAVYYCQQSSNVPYTFGQGTKVEIK
5 | 0.00764 | 0.00768 | 0.0076 | humanized anti-TREM-1 Fab fragment INO-10F-3 (Fab, V domains shown, Fab) VH: EVQLVESGGALVKPGGSLRLSCAASGFNIDNTYIHWVRQAPGKGLEWIGRIDPAGGRTKYDPKVKGRFTISADTSKNTAYLQMNSLKTEDTAVYYCTGHYGGTMDYWGQGTLVTVSS VL: EIVLTQSPATLSLSPGERATLSCRASESVDNYGISFLNWYQQKPGQAPRLLIYAAEYRGRGIPARFSGSGSGTDFTLTISSLEPEDFAVYYCQQSRHVPYTFGQGTKVEIK
